Experimental data taken from patent publication US20260060994A1, “GLYCOSYLATED COMPOSITIONS AND METHODS OF USE” (Cy Biopharma AG, priority 2023, published 2026).

B1: GLY164: glycosyltransferase (UGT), SEQ ID NO: 24 (protein)
chain: MKEKAELVFIPSPSVGHLVSVIVFAKRLLLLDRDNAAGSNNSFSITVLVMQEHTATASDNDAHIKSLAGAGATADVSIRFIGVPKMNPPPLDYFKSPEKFITEYVDSHKDCIKEAIIEHVLNNNVKIAGLVLDFFCSSMIDTANELGVPSYVFFTSGAAFLGFVLHLPTRGGEEFEESEADSADIFTYANPVPYRVLPSLCFNKHGGFSAFENFGRRFKETKGIIVNTFEELESHAVEYLMKCDGVPPVYNVGPMIDLHGDIHARPRGGGTQRDEIIRWLDDQPASSVVFLCFGSMGSFGEEQIKEVASGLGKSGVRFLWSLRKTPPKDRPEMPGEYTCVEDILPRGFQERSKGRGMICGWAPQKEVLAHSAIGGFVSHCGWNSILESVWFGVPIVTWPIYAEQQINAFQMVRDLGLAVELRLDYRRGTENHVMADELARAVGCVMDGDSEVRKRVKEVSEKARLALRDGGSSYAATGRLIEDLFGSVS
B2: GLY108: glycosyltransferase (UGT), SEQ ID NO: 14 (protein)
chain: MGSQQEHIVMLPFMAQGHIIPFLALAKQIQQRTGFTITIANTPLNIQYLRTTISTSDDSSRPCIRLAELPFCSSDHGLPPNTENTEALSFHQIVDLFHASKTLQAPFHSLVSGIIEKEGRPPLCIISDVFFGWATEVAKSLGTSNVTFTTGGGYGTAAYISLWQNLPHRATDSDYFALPGFPDSCRFHITQLHQYLRAADGTDAWSRYFQPQIALSLDSSGWLCNTAEEIEPHGLEILRNYVKPPVWTIGPLLPPALLNHSLSSGSSIFGQRAWKVSGVSPEKCLDWLDKHPQSSVLYISFGSQNTISPSQMMELALGLEDSGKPFIWVIRPPVGFDIEGEFRAEWLPQNFEQRMAESNQGLIVHKWAPQLEILSHKSTGVFLSHCGWNSVMESLCVGVPIIGWPLAAEQCYNSKMLTEDMGVAVELTRGRQGALERKEVKRVIELVMDSKGKGEEMKKKATEIGEKIRDAMREGGSSLKAMDDFVSTMLSKRQGY
B3: GLY73: glycosyltransferase (UGT), SEQ ID NO: 4 (protein)
chain: MEDAIVLYPSPGRGHLISMVELGKLILKNHPSFSITILILSEPNTNANSTAPNYVASSTTEYITTVNSTTPSITFHHLPPISEVPPSTSSFVELSYLIPRFNNQNLHQILKTISQTSKLKAFIIDFFCDAAFEVATNLDIPTYYFFTSGACYLAALLYRPTLHKKVDKSLKDLGNTLLDIPGLPPIQASDLPEPWKDRTSKEYQYSLNVAAHMAKSNGLLVNTFDLLETKAIKAISGGLCVPDRTTPPIFCIGPLISDSNQDVEDHECLNWLNSQPSRSVVFLCFGSLGLFSAKQLKEIAVGLENSGQRFLWVLRNPPSDNDKDPNLDELLPKGFLERTKEKGFVVKQWAPQVAVLRHDSVGGFVTHCGWNSVLEAVWCRVPMVGWPLYAEQRLNSVVLVEEIKLASGLNESEDGLVSAAELEKRVKELMDSEVGTEVRERVSGLRDEAVTAVKEGGSSHVALAKLAELWRQN
B4: GLY119: glycosyltransferase (UGT), SEQ ID NO: 16 (protein)
chain: MGSLGHQLHIFFLPFFAHGHMIPSVDMAKLFASRGIKTTIITTPLNAPFFSKTIQKTKELGFDINILTIKFPAAEAGLPEGYENTDAFIFSENAREMTIKFIKATTFLQAPFEKVLQECHPDCIVADVFFPWATDAAAKFGIPRLVFHGTSNFALSASECVRLYEPHKKVSSDSEPFVVPDLPGDIKLTKKQLPDDVRENVENDFSKFLKASKEAELRSFGVVVNSFYELEPAYADYYKKVLGRRAWNVGPVSLCNRDTEDKAGRGKETSIDHHECLKWLDSKKPNSVVYICFGSTTNFSDSQLKEIAAGLEASGQQFIWVVRRNKKGQEDKEDWLPEGFEERMEGVGLIIRGWAPQVLILDHEAIGAFVTHCGWNSTLEGITAGKPMVTWPIFAEQFYNEKLVTDVLKTGVGVGVKEWFRVHGDHVKSEAVEKTITQIMVGEEAEEMRSRAKKLGETARKAVEEGGSSYSDFNALIEELRWRRP
B5: GLY77: glycosyltransferase (UGT), SEQ ID NO: 8 (protein)
chain: MSTSELVFIPSPGAGHLPPTVELAKLLLHRDQRLSVTIIVMNLWLGPKHNTEARPCVPSLRFVDIPCDESTMALISPNTFISAFVEHHKPRVRDIVRGIIESDSVRLAGFVLDMFCMPMSDVANEFGVPSYNYFTSGAATLGLMFHLQWKRDHEGYDATELKNSDTELSVPSYVNPVPAKVLPEVVLDKEGGSKMFLDLAERIRESKGIIVNSCQAIERHALEYLSSNNNGIPPVFPVGPILNLENKKDDAKTDEIMRWLNEQPESSVVFLCFGSMGSFNEKQVKEIAVAIERSGHRFLWSLRRPTPKEKIEFPKEYENLEEVLPEGFLKRTSSIGKVIGWAPQMAVLSHPSVGGFVSHCGWNSTLESMWCGVPMAAWPLYAEQTLNAFLLVVELGLAAEIRMDYRTDTKAGYDGGMEVTVEEIEDGIRKLMSDGEIRNKVKDVKEKSRAAVVEGGSSYASIGKFIEHVSNVTI
B6: GLY169: glycosyltransferase (UGT), SEQ ID NO: 26 (protein)
chain: MKKPELIFIPAPGVGHVISALEFAARLLGHDPRISITVLAIKAPFSSHLDAYTKSLVASQPRIALIDLPPVDPPPPELLRSVEHYVTVYIESYIPHVQRAVGEIQSSRSDSGSDRSVAGFVLDFFCTSMIDVADGFSLPSYIYLTSNAHFLDLMFHLPARHDQIGREARLSDPDLPLPNFANPVPVSVLPSAVLDGEAGGYAAYVKLARRFRDVRGIMVNTFMELERSALGSFSGGSWDGPAVYAVGPVIDPKGVPDPSLDRAHWEKIREWLDEQPPSSVVFLCFGSLGSFDADQVKEIASGIERSGHKFLWSLRPESSQSQLPVGFLERMRGRGIICGWTPQVEVLGHAAIGGFVSHCGWNSILESLWYGVPIVTWPIYAEQQLNAFTMVKELGLAVELRLDYKGQGIGGHLVPAEEIEKAVGRLMGDDAAETRKKVREMREAARNAVKEGGSSYDSIGRLIQDFINSIE
B7: GLY146: glycosyltransferase (UGT), SEQ ID NO: 18 (protein)
chain: MKKSELVFIPAPGIGHLVSALEFAKRLIDHDDRHSITVLSMKFPFTPFADEFTKSLVASHHGIQVIDLPPVDPPPPELLNSPENFVCAFIESLIPHVRNTLTDMLSSSSRVSGLVLDFFCLSLIDVGNELGVPSYMFLTSNSGFLGLMLHIPIRHNQKSAEFEESDAEVSLPGFWNPVPVSVLPGAVFDKDGGYSAYLKLAKRFRDTKGIIVNTFSELELDSVKSLSDGETPPVYMVGPVIDLKGQPNPSLDQAQREKIMHWLDDQPESSVVYLCFGSMGTFGAIQLREIATGLERSGHRFLWSMRVPQPAKGPDDILPEGFSERIGGRGLICGWAPQMEVLAHKAIKGFVSHCGWNSILESLWFGVPIATWPIYAEQQMNAFRMVKEFGLAVEMKLDYRLGDLVMADEIEIAVRRLMDDSDELRKKVKEMGEMARQAIIEGGSSYIAVGQLIEDILGSISCDN

test: Glycosylation of 4-HO-MET by GLY enzymes (UDP-glucose), LC-UV/MS; type: biochemical; settings: 0.5 mM 4-OH-MET, 1.25 mM UDP-glucose, 25% (v/v) GLY enzyme, 24 h at 30° C.; estimate from UV peak areas
Method: 4-HO-MET was dissolved in 100% (v/v) DMSO to a concentration of 10 mM. The solution was stored at −20° C. prior to use.
FastAP phosphatase (1 U/uL) from ThermoFisher Scientific (catalog no. EF0651).
GLY enzyme suspensions contain 10 mM Tris-HCl at pH7.4, 250 mM imidazole and 50% (v/v) glycerol.
(§1) The assay conditions were: • 100 mM Tris-HCl, pH 7.4 • 5 mM MgCl2 • 1 mM KCl • 1.25 mM UDP-glucose • 0.5 mM 4-OH-MET • 5% (v/v) DMSO • 0.1 U/uL Fast AP phosphatase • 25% (v/v) GLY enzyme
(§2) Incubation was 24 house at 30° C. Reactions were terminated adding 3 volumes of 75% (v/v) ethanol.
(§3) LC separation was performed using an Agligen 1290 Infinity II UHPLC equipped with a Phenomenex Kinetex XB-C18 column (1.7 um, 100 angstroms, 100×2.1 mm) and 4-HO-MET was detected by absorbance at 210 nm and 268 nm with an Agilent 1260 Infinity II DAD.
(§4) 0.1% Formic acid in water (A) and 0.1% Formic acid in acetonitrile (B) were used as the mobile phases for the elution gradient, with a flow rate of 0.4 ml/min. Retention time for 4-HO-MET using this type of instrument under these condition was 2.6 min. The system was coupled to an Ultivo Triple Quadrupole MS. To verify the presence of possible glycoside products, as SIM (Selected Ion Monitoring) method was used on the MS to analyse for the m/z 381 (theoretical mass to chart ratio of 4-HO-MET-glucoside) and m/z 219 (theoretical mass to charge ratio of 4-HO-MET).
As standard, 4-HO-MET solutions at a concentrations of 500, 250, 125, 62.5, and 31.25 uM were prepared from the 10 mM stock and used for caliboration.
A representative example of the chromatograms obtained with a wavelength of 268 nm for the standard solutions resuspended in the reaction buffer, and the corresponding MS-SIM signal, is shown in FIG. 16. The peak corresponding to 4-HO-MET is indicated.
When analyzing the GLY reactions, 30 of them gave an additional peak with retention time 2.2 min (i.e. in the expected region for a 4-HO-MET glucoside) and molecular mass compatible with the expected glucoside product, together with a corresponding decrease in substrate concentration, compared to the no-enzyme controls.
The method was repeated using various GLY enzymes to produce 4-HO-MET glucosides.
(§5) The enzymes giving the additional peak putatively corresponding to the 4-HO-MET-β-D-glucoside are listed below. […] A correct quantification of the product is not possible without a standard for the specific molecule. However, based on the assumption that the ratio area-to-concentration in the UV chromatograms will be similar to 4-HO-MET, estimates of the relative abundance for the additional peak are also given, expressed as percentage of converted 4-HO-MET. GLY enzymes hits are ranked according to their estimated conversion efficiency.

Molecule	4-OH-MET GLY % (percentage of converted 4-HO-MET) [%]
B1	10.2
B2	8.7
B3	7.4
B4	6
B5	66.5
B6	52.3

test: Glycosylation of 4-OH-EPT by GLY enzymes (UDP-glucose), LC-UV/MS; type: biochemical; settings: conditions of Examples 1 and 2 repeated for 4-OH-EPT; estimate from UV peak areas
Method: as §1, §2, §3, §4, §5
The experiments described in Examples 1 and 2 above were repeated for 4-OH-EPT.
Below is the corresponding data for 4-OH-EPT.

Molecule	4-OH-EPT GLY % (percentage of converted 4-OH-EPT) [%]
B5	66.2
B6	33
B7	5.3

test: Glycosylation of 4-OH-MiPT by GLY enzymes (UDP-glucose), LC-UV/MS; type: biochemical; settings: conditions of Examples 1 and 2 repeated for 4-OH-MiPT; estimate from UV peak areas
Method: as §1, §2, §3, §4, §5
(§6) The experiments described in Examples 1 and 2 above were repeated for 4-OH-MiPT, 4-HO-DMT and 5-HO-DMT
Below is the corresponding data for 4-OH-MiPT.

Molecule	4-OH-MiPT GLY % (percentage of converted 4-OH-MiPT) [%]
B5	85
B6	71.5
B7	23.2

test: Glycosylation of 4-OH-DMT by GLY enzymes (UDP-glucose), LC-UV/MS; type: biochemical; settings: conditions of Examples 1 and 2 repeated for 4-HO-DMT; estimate from UV peak areas
Method: as §1, §2, §3, §4, §5, §6
Below is the corresponding data for 4-OH-DMT and 5-HO-DMT.

Molecule	4-OH-DMT GLY % [%]
B3	14.0
B5	30.2
B6	25.0
